The nature of the data set: yeast display, Sf9 membrane polyspecificity reagent, FACS + sequencing; frameworks hold sequencing errors. The method in brief: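 Galactose-induced (36–48 hours) yeast carrying a synthetic nanobody display library were exposed to 10% biotinylated, detergent-solubilized Sf9 membrane reagent at 4 °C for 1 hour. FACS followed streptavidin microbead enrichment, using low and high (top ~1%) gates for expression (anti-HA) and reagent binding (streptavidin). Colony PCR, MiSeq 2 × 250 sequencing and CDR-length filtering followed. Labels for polyreactivity reflect the gate of origin.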
With “QVQLVESGGGLVQAGGSLRLSCAASGSISYYNAMGWYRQAPGKERELVATITDSGGSTYYADSVKGRFTISRDNAKNTVYLQMNSLKPEDTAVYYCAVDYSEWYSIYDYWGQGTQVTVSS”, the “polyreactivity (PSR sort gate)” value was “low polyreactivity”.

For “QVQLVESGGGLVQAGGSLRLSCAASGSISYYNAMGWYRQAPGKERELVATITDSGGSTYYADSVKGRFTISRDNAKNTVYLQMNSLKPEDTAVYYCNADYWAVNYDYWGQGSQVTVSS”, the “polyreactivity (PSR sort gate)” value is reported as “low polyreactivity”.

For the sequence “QVQLVESGGGLVQAGGSLRLSCAASGSIVRFYAMGWYRQAPGKERELVASITSGGSTNYADSVKGRFTISRDNAKNTVYLQMNSLKPEDTAVYYCAVRLKGYRRRDYWGQGTQVTVSS”, the “polyreactivity (PSR sort gate)” value is “high polyreactivity”.

For the sequence “QVQLVESGGGLVQAGGSLRLSCAASGSIVRSYAMGWYRQAPGKERELVAAITGGANTYYADSVKGRFTISRDNAKNTVYLQMNSLKPEDTAVYYCAASPIQTGSIFSTFYSYRSYYWGQGTQVTVSS”, the “polyreactivity (PSR sort gate)” value was “high polyreactivity”.

Turning to “QVQLVESGGGLVQAGGSLRLSCAASGSIVSYYAMGWYRQAPGIERELVAAITTRGGRSYYADSVMGRFTISRDYAKNTVYLPMNSLKPEDTAVYYFNRYPGYIQGDYDYWGQGTQVTVSS”, the “polyreactivity (PSR sort gate)” value is “high polyreactivity”.

On to “QVQLVESGGGLVQAGGSLRLSCAASGSIVVHNAMGWYRQAPGKERELVAAITWSGGSTYYADSVKGRFTISRDNAKNTVYLQMNSLKPVDTAVYYCAAEDVAAQWAYESPTSYWYYYWGQGTQVTVSS”, for which the “polyreactivity (PSR sort gate)” value is recorded as “low polyreactivity”.

Regarding “QVQLVESGGGLVQAGGSLRLSCAASGSIVVVYDKGWYRQAPGKERELVAAISRRGGNTYYADSVKGRFTISRDNAKNTVYLQMNSLKPEDTAVYYCNAVRTRKAFDYWGQGTQVTVSS”, the “polyreactivity (PSR sort gate)” value is “low polyreactivity”.

As to “QVQLVESGGGLVQAGGSLRLSCAASGSIVYRYSMGWYRQAPGKERELVAGITFGAGTYYADSVKGRFTISRDNAKNTVYLQMNSLKPEDTAVYYCNAIHLPRHRDYWGQGTQVTVSS”, the “polyreactivity (PSR sort gate)” value was “low polyreactivity”.

As for “QVQLVESGGGLVQAGGSLRLSCAASGSIWHKAMGWYRQAPGKERELVASSTNYADSVKGRITISRDNAKNTVYLQMNSLKPEDTAVYYCALEQGVNRNHDYWGQGTQVTVSS”, the “polyreactivity (PSR sort gate)” value was “low polyreactivity”.

As to “QVQLVESGGGLVQAGGSLRLSCAASGSIWYYAMGWYRQAPWTERELVAAIRRGGSTYYADYVKGRFTISRDNAKNTVYVQMNSMKPEDTAVYYCAASWNYYKLDYWGQGTQVTVSS”, the “polyreactivity (PSR sort gate)” value is “high polyreactivity”.

For “QVQLVESGGGLVQAGGSLRLSCAASGSIYDIYAMGWYGQAPGKERELVAAIRSGDRTHYADSVKGRFTISRDNAKNTVYLQMNSLKPEDTAVYYCAADRYIYLNREHDYWGQGTQVTVSS”, the “polyreactivity (PSR sort gate)” value is on record as “low polyreactivity”.

“QVQLVESGGGLVQAGGSLRLSCAASGSIYDWYSMGWNIQAPGKERELVAAISSGDSTYYADSVKGRFTISRDNAKNTVYLQMNSLKPEDTAVYYCAAVTKLSGIRYNYWGQGTQVTVSS”: the “polyreactivity (PSR sort gate)” value was “low polyreactivity”.

For “QVQLVESGGGLVQAGGSLRLSCAASGSIYESYAMGWYRQAPGKERELVADITYDGGITYYADSVKGRFTISRDNAKNTVYLQMNSLKPEDTAVYYCATEYRYWLSDYSTYFPYDYWGQGSQVTVSS”, the “polyreactivity (PSR sort gate)” value was “low polyreactivity”.

Regarding “QVQLVESGGGLVQAGGSLRLSCAASGSIYPGNAMGWYRQAPGKERELVAVIDFSGASTYYADSVKGRFTISRDNAKNTVYLQMNSLKPEDTADYWGQGTQVTVSS”, the “polyreactivity (PSR sort gate)” value is listed as “low polyreactivity”.

As for “QVQLVESGGGLVQAGGSLRLSCAASGSIYVPNDMGWYRQAPGKEREFVAAITESDGSTYYADSVKGRFTISRDNAKNTVYLQMNSLKPEDTAVYYCATDSTGVTIVHFDYWGQGTQVTVSS”, the “polyreactivity (PSR sort gate)” value was “low polyreactivity”.

Consider “QVQLVESGGGLVQAGGSLRLSCAASGSIYVSYAMGWYRQAPGKERELVATITTSTGSTYADSVKGRFTISRDNAKNTVYLQMNSLKPEDTAVYYCAARYQPWLNDDFDSWGQGTQVTVSS”, for which the “polyreactivity (PSR sort gate)” value is “low polyreactivity”.

Consider “QVQLVESGGGLVQAGGSLRLSCAASGSIYVYYAKGWYRQAPGKERYLVAAINTSGGSTYYADSVKGRFTISRDNAKNTVYLQMNSLKPEDTAVYYCAATPFASPRLHSFVVSYRYYYWGQGTQVTVSS”, for which the “polyreactivity (PSR sort gate)” value is reported as “low polyreactivity”.

Consider “QVQLVESGGGLVQAGGSLRLSCAASGSIYYNAMGWYRQAPGKERELVAAISTSGGTTYYADSVKGRFTISRDNAKNTVYLQMNSLKPEDTAVYYCNARPSRRGAFDYWGQGTQVTVSS”, for which the “polyreactivity (PSR sort gate)” value was “high polyreactivity”.

“QVQLVESGGGLVQAGGSLRLSCAASGSLFGANAMGWYRQAPGKERELVAAISSNGDDTYADSVKGRFTISRDNAKNTVYLQMNSLKPEDTAVYYCNKRPWWWGGDDYWGQGTQVTVSS”: the “polyreactivity (PSR sort gate)” value is on record as “low polyreactivity”.

For “QVQLVESGGGLVQAGGSLRLSCAASGSLFPHYAMGWNRQAPGKEREFVATISGSTGRTYYADSVKGRFTISRDNAKNTVYLQMNSLKPEDTAVYYCATSVGYYLPPIKYDYWGQGTQVTVSS”, the “polyreactivity (PSR sort gate)” value is recorded as “low polyreactivity”.

As to “QVQLVESGGGLVQAGGSLRLSCAASGSLFRSYAMGWYRQAPGKERELVAAISTRVVNTYYADSVKGRFTISRDNAKNTVYLQMNSLKPEDTAVYYCAALRYRITNVYYWGQGTQVTVSS”, the “polyreactivity (PSR sort gate)” value is given as “high polyreactivity”.

“QVQLVESGGGLVQAGGSLRLSCAASGSLFYNNAKGWYRQAPGKERELVAAIRSTGTRTYYADSVKGRFTISRDTAKNTVYLQMNSLKPEDTAVYYCAVGDYGLWSYDYWGQGSQVTVSS”: the “polyreactivity (PSR sort gate)” value is given as “low polyreactivity”.

With “QVQLVESGGGLVQAGGSLRLSCAASGSMFITYTMGWYRQAPGKERELVAAITWDGGSTYYADSVKGRFTISRDNAKNTVYLQMNSLKPEDTAVYYCAKDVILVWPYATGRDYWGQGTQVTVSS”, the “polyreactivity (PSR sort gate)” value was “low polyreactivity”.

Take “QVQLVESGGGLVQAGGSLRLSCAASGSNFAGYAMGWYRPAPGKERALGAAISWSGGSTYYADSVKGRFTISRDNAKNTVYLQINSLKPEDTAVYYCNALRYGWKYNYWGQGTQVTVSS”: the “polyreactivity (PSR sort gate)” value is recorded as “high polyreactivity”.

Consider “QVQLVESGGGLVQAGGSLRLSCAASGSNFDAYAIGWYRQAPGKERELVASISIGGSTNYADSVKGRFTISRDNAKNTVYLQMNSLKPEDSAVYYCAAYVYYTYPSGTVYSVSYIYDYWGQGTQVTVSS”, for which the “polyreactivity (PSR sort gate)” value is “low polyreactivity”.

On to “QVQLVESGGGLVQAGGSLRLSCAASGSNFFSNAMGWYRQAPGKERELVAAITSTGGSTYYADSVKGRFTISRDNAKNTVYLQMNSLKPEVTAVYYCAAASRRGYYYWGQGTQVTVSS”, for which the “polyreactivity (PSR sort gate)” value is “high polyreactivity”.

Consider “QVQLVESGGGLVQAGGSLRLSCAASGSNFFVYAMGWYRQAPGKERELVASIRWRGSSTYYADSVKGRFTISRDNAKNPVYLQMNSLKPEDTAVYDCAATSYNGYGYWGQGTQVTVSS”, for which the “polyreactivity (PSR sort gate)” value is given as “high polyreactivity”.

Consider “QVQLVESGGGLVQAGGSLRLSCAASGSNFGYNAIGWYRKAPGKEREFVAGISWSGGRTYYADSEKGRFTISRDNAKNTVYLQMNSLKPEDTAVYYCAAPSRPAPRFDYWGQGTQVTVSS”, for which the “polyreactivity (PSR sort gate)” value is “low polyreactivity”.

Turning to “QVQLVESGGGLVQAGGSLRLSCAASGSNFHYNAMGWYRQAPGKERELVAAIRWGGGSTFYADSVKGRFTISRDNAKNTVYLQMNSLKPEDTAVYYCAADYWYETRDFTFFDLYVSYEYWGQGTQVTVSS”, the “polyreactivity (PSR sort gate)” value is listed as “low polyreactivity”.

Consider “QVQLVESGGGLVQAGGSLRLSCAASGSNFIWYVMGWYRQAPGKEREFVAAINWRGTSTYYADSVKGRFTISRDNAKNTVYLQMNSLKPEDTAVYYCAARVTYRGRAYDYWGQGTQVTVSS”, for which the “polyreactivity (PSR sort gate)” value is listed as “high polyreactivity”.

Turning to “QVQLVESGGGLVQAGGSLRLSCAASGSNFKSYAKGWYRQAPGKERELVAAITYRGGSTYYADSVKGRFTISRDNAKNTVSLQMNSLKPEDTAVYYCAADYQSVGGAEYDYWGQGTQVTVSS”, the “polyreactivity (PSR sort gate)” value was “high polyreactivity”.

Consider “QVQLVESGGGLVQAGGSLRLSCAASGSNFLFNAMGWYRQAPGKERELVAAINRDDSTYYADSVKGRFTISRDNAKNTVYLQMNSLKPEDTAVYYCARDYRYTIPYDYWGQGTQVNVSS”, for which the “polyreactivity (PSR sort gate)” value is given as “low polyreactivity”.

Take “QVQLVESGGGLVQAGGSLRLSCAASGSNFLSYAMGWYRQAPGKERELVAAITGSGGNTYYADSVKGRFTISRDNAKHTVYLQMKSLKPEDTAVYYCSAVATRSNYWRGFYYWGQGTKVTVSS”: the “polyreactivity (PSR sort gate)” value is recorded as “high polyreactivity”.

Consider “QVQLVESGGGLVQAGGSLRLSCAASGSNFPINAMGWYRQAPGKERELVAAISWRTGSTNYADSVKGRFTISRDNAMNTVYVQMNSLKPEDTAVFYCAASYATTRQRWLDYWGQGTQVTVSS”, for which the “polyreactivity (PSR sort gate)” value was “high polyreactivity”.

On to “QVQLVESGGGLVQAGGSLRLSCAASGSNFQVNAMGWYRQAPGKERELVASIDSSGGSTYYADSVKGRFTISRDNAKNTVYLQMNSLKPEDTAVFYCAAEYHHYYYYWGEYWGQGTQVTVSS”, for which the “polyreactivity (PSR sort gate)” value is listed as “low polyreactivity”.

For “QVQLVESGGGLVQAGGSLRLSCAASGSNFRANAMGWYRQATGKERELVAAISKSGGSTYYADSVKGRFRISRDNAKNTVYLQMNSLKPEDTGVYYCAARTTYLYGMYYWGQGTQVTVSS”, the “polyreactivity (PSR sort gate)” value is listed as “low polyreactivity”.

Regarding “QVQLVESGGGLVQAGGSLRLSCAASGSNFRYYAMGWYRQAPGTERELVADISSGGSTYYADSVKGRFTISRDNAKNTVYLQMNRLKPEDTAVYYCKADYYAYPWTNDYWGQGTQVTVSS”, the “polyreactivity (PSR sort gate)” value is reported as “high polyreactivity”.

In the case of “QVQLVESGGGLVQAGGSLRLSCAASGSNFSSYALGWYRQAPGKERELVAAITSGGSTYYADSVKARFTISRDNAKNTVYLQMNSLKPEDTAVYYCNADISRDNDFDYWGQGTQVTVSS”, the “polyreactivity (PSR sort gate)” value is given as “low polyreactivity”.

“QVQLVESGGGLVQAGGSLRLSCAASGSNFSSYAMGWYREAPGKERELVAAIDGSGGSTYADSVKGRFTISRDNAKNTVYLQMNSLKPEDTAVYYCAVDSFLVYSAVRPYDYWGQGTQVTVSS”: the “polyreactivity (PSR sort gate)” value is “low polyreactivity”.

For the sequence “QVQLVESGGGLVQAGGSLRLSCAASGSNFSTYVMGWYRQAPGKERELVATISASDGSTYYADSVKGRFTISRDNAKNTVYLQMNSLKPEDSAVYYCAADTQEYRPTYDYWGQGTQVTVSS”, the “polyreactivity (PSR sort gate)” value was “low polyreactivity”.

Regarding “QVQLVESGGGLVQAGGSLRLSCAASGSNFSYYDMGWYRQAPGKERELVAAISWNGGTTYYADSVKGRFTISRDNAKNTVYLQMNSLKPEDTAVYYCAATWDFYWAPYDSWGQGTQVTVSS”, the “polyreactivity (PSR sort gate)” value is on record as “low polyreactivity”.

These data come from the nanobody polyreactivity screen of Harvey et al. (2022).
